Results reported in the supplement of paper PMC9112550, “Optimization of the antimicrobial peptide Bac7 by deep mutational scanning” (BMC Biology, 2022).

System: Escherichia coli TOP10
Test: shrunken log2 fold change of peptide-encoding DNA abundance (4.5 h post-induction vs induction); higher = less antimicrobial activity (less host growth inhibition)
Details: time post-induction: 4.5 h; library: site-saturation at positions 5, 18, 19, 20
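Also: peptides expressed intracellularly from a pBAD plasmid library in pooled LB shake-flask culture, induced with 0.3% L-arabinose, DNA abundance read by NGS, three biological replicates, DESeq2 with apeglm shrinkage.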

Row | Sequence | shrunken log2 fold change
1 | RRIRARPPRLPRPRPRPPPTPRP | 1.13
2 | RRIRVRPPRLPRPRPRPTKIPRP | -0.321
3 | RRIRCRPPRLPRPRPRPCLIPRP | -0.404
4 | RRIRKRPPRLPRPRPRPWMYPRP | -0.122
5 | RRIRERPPRLPRPRPRPPASPRP | 0.127
6 | RRIRNRPPRLPRPRPRPSKTPRP | -0.454
7 | RRIRDRPPRLPRPRPRPMVWPRP | 0.851
8 | RRIRLRPPRLPRPRPRPGVCPRP | 0.195
9 | RRIRRRPPRLPRPRPRPMDPPRP | 0.139
10 | RRIRIRPPRLPRPRPRPSLYPRP | -0.535
11 | RRIRQRPPRLPRPRPRPMCGPRP | 0.31
12 | RRIRHRPPRLPRPRPRPWETPRP | -0.141
13 | RRIRDRPPRLPRPRPRPQRFPRP | 0.095
14 | RRIRFRPPRLPRPRPRPPIWPRP | 0.317
15 | RRIRPRPPRLPRPRPRPCTRPRP | 2.07
16 | RRIRRRPPRLPRPRPRPKDIPRP | -0.193
17 | RRIRDRPPRLPRPRPRPRITPRP | -0.138
18 | RRIRRRPPRLPRPRPRPKMLPRP | 0.161
19 | RRIRERPPRLPRPRPRPAHLPRP | 0.301
20 | RRIRIRPPRLPRPRPRPNMFPRP | -0.394
21 | RRIRDRPPRLPRPRPRPCFYPRP | -0.167
22 | RRIRHRPPRLPRPRPRPQMNPRP | -0.312
23 | RRIRMRPPRLPRPRPRPEALPRP | 3.81
24 | RRIRTRPPRLPRPRPRPFATPRP | 0.101
25 | RRIRQRPPRLPRPRPRPQQDPRP | 0.206

Row | Sequence | shrunken log2 fold change
26 | RRIRERPPRLPRPRPRPEFKPRP | 0.114
27 | RRIRCRPPRLPRPRPRPVYHPRP | -0.53
28 | RRIRQRPPRLPRPRPRPTGNPRP | -0.0862
29 | RRIRLRPPRLPRPRPRPFGIPRP | -0.255
30 | RRIRPRPPRLPRPRPRPGFVPRP | 0.143
31 | RRIRYRPPRLPRPRPRPTQMPRP | -0.213
32 | RRIRARPPRLPRPRPRPKQSPRP | 0.608
33 | RRIRRRPPRLPRPRPRPNNKPRP | -0.24
34 | RRIRTRPPRLPRPRPRPQWGPRP | -0.0978
35 | RRIRDRPPRLPRPRPRPYIMPRP | -0.42
36 | RRIRQRPPRLPRPRPRPHMRPRP | 0.36
37 | RRIRSRPPRLPRPRPRPLEDPRP | 0.0492
38 | RRIRGRPPRLPRPRPRPIYVPRP | 1.23
39 | RRIRPRPPRLPRPRPRPQCAPRP | 0.167
40 | RRIRRRPPRLPRPRPRPCMEPRP | -0.174
41 | RRIRARPPRLPRPRPRPAPSPRP | 0.787
42 | RRIRQRPPRLPRPRPRPAHDPRP | -0.161
43 | RRIRTRPPRLPRPRPRPLHDPRP | -0.21
44 | RRIRMRPPRLPRPRPRPPIGPRP | 0.161
45 | RRIRCRPPRLPRPRPRPGHWPRP | 0.0171
46 | RRIRARPPRLPRPRPRPQCFPRP | 0.1
47 | RRIRPRPPRLPRPRPRPWSMPRP | -0.155
48 | RRIRSRPPRLPRPRPRPSLQPRP | -0.606
49 | RRIRFRPPRLPRPRPRPHRVPRP | -0.137
50 | RRIRRRPPRLPRPRPRPYARPRP | 0.0203

Row | Sequence | shrunken log2 fold change
51 | RRIRNRPPRLPRPRPRPPGVPRP | 0.653
52 | RRIRNRPPRLPRPRPRPQVAPRP | 0.14
53 | RRIRDRPPRLPRPRPRPEIDPRP | 0.0535
54 | RRIRERPPRLPRPRPRPPNFPRP | -0.329
55 | RRIRVRPPRLPRPRPRPLNLPRP | -0.304
56 | RRIRVRPPRLPRPRPRPHWAPRP | 0.142
57 | RRIRIRPPRLPRPRPRPDLDPRP | -3.99e-05
58 | RRIRTRPPRLPRPRPRPSWNPRP | -0.34
59 | RRIRFRPPRLPRPRPRPLFAPRP | 0.15
60 | RRIRHRPPRLPRPRPRPCYRPRP | -0.121
61 | RRIRWRPPRLPRPRPRPHLMPRP | -0.0519
62 | RRIRCRPPRLPRPRPRPTKPPRP | 0.531
63 | RRIRGRPPRLPRPRPRPHYDPRP | -0.0292
64 | RRIRPRPPRLPRPRPRPFNLPRP | -0.771
65 | RRIRRRPPRLPRPRPRPGKYPRP | -0.307
66 | RRIRIRPPRLPRPRPRPKMFPRP | 0.0072
67 | RRIRKRPPRLPRPRPRPTTFPRP | 0.18
68 | RRIRPRPPRLPRPRPRPGYMPRP | -0.126
69 | RRIRPRPPRLPRPRPRPQADPRP | 0.154
70 | RRIRDRPPRLPRPRPRPHYIPRP | -1.02
71 | RRIRARPPRLPRPRPRPYHTPRP | -0.407
72 | RRIRVRPPRLPRPRPRPHYCPRP | -0.186
73 | RRIRARPPRLPRPRPRPTCFPRP | 0.57
74 | RRIRKRPPRLPRPRPRPPDRPRP | 0.862
75 | RRIRDRPPRLPRPRPRPAVGPRP | 0.148

Row | Sequence | shrunken log2 fold change
76 | RRIRKRPPRLPRPRPRPAPEPRP | 1.26
77 | RRIRYRPPRLPRPRPRPPLGPRP | -0.258
78 | RRIRWRPPRLPRPRPRPSQEPRP | 0.0253
79 | RRIRPRPPRLPRPRPRPKPWPRP | 0.227
80 | RRIRIRPPRLPRPRPRPAVYPRP | -0.825
81 | RRIRKRPPRLPRPRPRPGNHPRP | 0.0875
82 | RRIRLRPPRLPRPRPRPFDDPRP | -0.00884
83 | RRIRGRPPRLPRPRPRPTLAPRP | 1.27
84 | RRIRHRPPRLPRPRPRPIKSPRP | -0.0206
85 | RRIRSRPPRLPRPRPRPEARPRP | 0.292
86 | RRIRARPPRLPRPRPRPGVAPRP | 1.05
87 | RRIRIRPPRLPRPRPRPHKWPRP | -0.256
88 | RRIRGRPPRLPRPRPRPVVTPRP | -0.216
89 | RRIRDRPPRLPRPRPRPALDPRP | 1.05
90 | RRIRARPPRLPRPRPRPRDCPRP | 0.391
91 | RRIRKRPPRLPRPRPRPRIQPRP | 0.475
92 | RRIRIRPPRLPRPRPRPMVIPRP | -0.154
93 | RRIRMRPPRLPRPRPRPHSSPRP | 0.0203
94 | RRIRDRPPRLPRPRPRPETEPRP | -0.0111
95 | RRIRERPPRLPRPRPRPMMEPRP | -0.0582
96 | RRIRIRPPRLPRPRPRPSWVPRP | -0.168
97 | RRIRLRPPRLPRPRPRPKVAPRP | -0.0483
98 | RRIRQRPPRLPRPRPRPNFHPRP | -0.232
99 | RRIRPRPPRLPRPRPRPALEPRP | 0.313
100 | RRIRKRPPRLPRPRPRPICKPRP | 0.363

Row | Sequence | shrunken log2 fold change
101 | RRIRVRPPRLPRPRPRPHRWPRP | 0.0461
102 | RRIRYRPPRLPRPRPRPTTPPRP | -0.437
103 | RRIRARPPRLPRPRPRPHWIPRP | -0.277
104 | RRIRFRPPRLPRPRPRPYCDPRP | -0.535
105 | RRIRPRPPRLPRPRPRPGYLPRP | -0.129
106 | RRIRGRPPRLPRPRPRPGAWPRP | 1.56
107 | RRIRVRPPRLPRPRPRPNGCPRP | 0.0454
108 | RRIRVRPPRLPRPRPRPDLFPRP | -0.045
109 | RRIRWRPPRLPRPRPRPCLGPRP | 0.0309
110 | RRIRERPPRLPRPRPRPFYWPRP | -0.158
111 | RRIRYRPPRLPRPRPRPDYWPRP | -0.134
112 | RRIRVRPPRLPRPRPRPRDYPRP | -0.0816
113 | RRIRMRPPRLPRPRPRPQMKPRP | 0.518
114 | RRIRWRPPRLPRPRPRPPYPPRP | 0.0905
115 | RRIRERPPRLPRPRPRPVYTPRP | -0.146
116 | RRIRLRPPRLPRPRPRPKVCPRP | 0.0264
117 | RRIRARPPRLPRPRPRPELNPRP | 0.746
118 | RRIRERPPRLPRPRPRPDAHPRP | -0.308
119 | RRIRNRPPRLPRPRPRPYQNPRP | 0.0156
120 | RRIRLRPPRLPRPRPRPEMSPRP | -0.0316
121 | RRIRSRPPRLPRPRPRPAVWPRP | 0.765
122 | RRIRLRPPRLPRPRPRPYNFPRP | -0.0404
123 | RRIRSRPPRLPRPRPRPSKLPRP | -0.398
124 | RRIRERPPRLPRPRPRPAFTPRP | -0.0832
125 | RRIRSRPPRLPRPRPRPHNYPRP | -0.372

Row | Sequence | shrunken log2 fold change
126 | RRIRIRPPRLPRPRPRPEMSPRP | -0.0264
127 | RRIRQRPPRLPRPRPRPDIYPRP | -0.284
128 | RRIRFRPPRLPRPRPRPPYSPRP | -0.235
129 | RRIRDRPPRLPRPRPRPFMGPRP | -0.27
130 | RRIRGRPPRLPRPRPRPSYIPRP | -0.458
131 | RRIRLRPPRLPRPRPRPMTCPRP | -0.252
132 | RRIRIRPPRLPRPRPRPQEPPRP | -0.04
133 | RRIRTRPPRLPRPRPRPASEPRP | -0.0873
134 | RRIRARPPRLPRPRPRPLAWPRP | 0.721
135 | RRIRSRPPRLPRPRPRPMEWPRP | 0.199
136 | RRIRKRPPRLPRPRPRPFQKPRP | 0.0267
137 | RRIRPRPPRLPRPRPRPPRRPRP | 0.638
138 | RRIRCRPPRLPRPRPRPIMAPRP | -0.236
139 | RRIRFRPPRLPRPRPRPLQTPRP | 0.165
140 | RRIRDRPPRLPRPRPRPNDAPRP | 0.0621
141 | RRIRTRPPRLPRPRPRPHKFPRP | -0.18
142 | RRIRPRPPRLPRPRPRPMSFPRP | -0.0289
143 | RRIRERPPRLPRPRPRPYKYPRP | 0.686
144 | RRIRQRPPRLPRPRPRPGHIPRP | -0.0594
145 | RRIRLRPPRLPRPRPRPREQPRP | 0.134
146 | RRIRMRPPRLPRPRPRPEGHPRP | 2.72
147 | RRIRIRPPRLPRPRPRPHKYPRP | -1.08
148 | RRIRQRPPRLPRPRPRPKPQPRP | -0.0342
149 | RRIRPRPPRLPRPRPRPPAKPRP | 0.657
150 | RRIRNRPPRLPRPRPRPKMRPRP | 0.313
